Laboratory results from article PMC10033314.

How the values were obtained:
[1] = target: Quenched-fluorescent peptide substrate fluorescein-5(6)-carbonyl-Ala-Glu-Leu-Asn-Gly-Arg-Pro-Ile-Ser-Ile-Ala-Lys(5(6)-TAMRA)
[2] = target: Versican V1-5GAG (truncated V1, residues 21-694) (UniProt P13611)
[3] = target: Biglycan, full length, C-terminal 6x-His (human) (UniProt P21810)
[4] = target: Versican V1-5GAG (truncated V1, residues 21-694) (UniProt P13611); remark: listed apart in the source
Full-length versican V1 [5] = target: Full-length versican V1 (UniProt P13611)
Full-length versican V1 [6] = target: Full-length versican V1 (UniProt P13611); remark: listed apart in the source

Sequence of UniProt P21810 (P21810 38-368): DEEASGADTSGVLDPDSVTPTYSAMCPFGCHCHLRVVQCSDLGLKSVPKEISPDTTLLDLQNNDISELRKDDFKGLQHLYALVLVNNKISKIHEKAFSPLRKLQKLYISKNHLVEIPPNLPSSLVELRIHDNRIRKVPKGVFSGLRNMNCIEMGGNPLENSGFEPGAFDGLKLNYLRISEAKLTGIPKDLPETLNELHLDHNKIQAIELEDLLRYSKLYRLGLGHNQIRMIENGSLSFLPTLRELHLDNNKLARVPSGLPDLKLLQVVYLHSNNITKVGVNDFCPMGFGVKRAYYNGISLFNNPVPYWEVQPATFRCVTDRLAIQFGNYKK

kcat/Km for proteolysis of the QF peptide [1]	kcat/Km for cleavage of V1-5GAG (50 nM), time course with versikine ELISA [2]	reduction of the 30 kDa biglycan fragment against WT ADAMTS1; variant at 50 nM, 24 h at 37 °C, immunoblot and densitometry [3]	kcat/Km for cleavage of V1-5GAG (50 nM) at Glu441-Ala442, time course with versikine ELISA [4]	kcat/Km for cleavage of V1 (50 nM) at Glu441-Ala442, time course with versikine ELISA, no cofactor (Full-length versican V1 [5])	kcat/Km for cleavage of FL versican, as told in the discussion and the abstract (Full-length versican V1 [6])	Molecule
4500 M⁻¹ s⁻¹	260 M⁻¹ s⁻¹	75 % reduction				ADAMTS1 variant MDTC (truncated after the cysteine-rich domain) (domain or fragment)
4200 M⁻¹ s⁻¹			4200 M⁻¹ s⁻¹	3400 M⁻¹ s⁻¹	3600 M⁻¹ s⁻¹	A disintegrin-like and metalloproteinase with thrombospondin type 1 motifs 1 (ADAMTS1), wild type (enzyme) FVSSHRYVETMLVADQSMAEFHGSGLKHYLLTLFSVAARLYKHPSIRNSVSLVVVKILVIHDEQKGPEVTSNAALTLRNFCNWQKQHNPPSDRDAEHYDTAILFTRQDLCGSQTCDTLGMADVGTVCDPSRSCSVIEDDGLQAAFTTAHELGHVFNMPHDDAKQCASLNGVNQDSHMMASMLSNLDHSQPWSPCSAYMITSFLDNGHGECLMDKPQNPIQLPGDLPGTSYDANRQCQFTFGEDSKHCPDAASTCSTLWCTGTSGGVLVCQTKHFPWADGTSCGEGKWCINGKCVNKTDRKHFDTPFHGSWGMWGPWGDCSRTCGGGVQYTMRECDNPVPKNGGKYCEGKRVRYRSCNLEDCPDNNGKTFREEQCEAHNEFSKASFGSGPAVEWIPKYAGVSPKDRCKLICQAKGIGYFFVLQPKVVDGTPCSPDSTSVCVQGQCVKAGCDRIIDSKKKFDKCGVCGGNGSTCKKISGSVTSAKPGYHDIITIPTGATNIEVKQRNQRGSRNNGSFLAIKAADGTYILNGDYTLSTLEQDIMYKGVVLRYSGSSAALERIRSFSPLKEPLTIQVLTVGNALRPKIKYTYFVKKKKESFNAIPTFSAWVIEEWGECSKSCELGWQRRLVECRDINGQPASECAKEVKPASTRPCADHPCPQWQLGEWSSCSKTCGKGYKKRSLKCLSHDGGVLSHESCDPLKKPKHFIDFCTMAECS
